Measurements as given in patent US20220017623A1, “TREATMENT OF CANCER USING A CEA CD3 BISPECIFIC ANTIBODY AND A WNT SIGNALING INHIBITOR” (Hoffmann-La Roche Inc., priority 2019, published 2022).
Like-named read-outs stand apart in the source and are kept apart here.

What was measured:
[1] = system: patient derived colorectal cancer organoids (PDOs); test: allogeneic CD8 T cell co-culture assay with patient derived colorectal cancer organoids, GFP confluence growth assessment; format: cell-based, human; details: 20 nM
Protocol: In order to assess the sensitivity of patient-derived colorectal cancer organoids (PDOs) to cibisatamab immunotherapy, eight patient derived colorectal cancer organoid lines with various cell surface CEA expression levels were generated and treated with cibisatamab (20 nM) or an untargeted control antibody (20 nM) during 10 days of co-culture with allogeneic CD8 T cells. CD8 T cells were isolated from allogeneic healthy donor peripheral blood mononuclear cells (PBMCs) by magnetic bead sorting and expanded in vitro with IL2 and CD3/CD28 beads for 7-14 days. GFP-tagged CRC PDO cells were then seeded in 96 well plates, T cells were added the following day and the co-cultures were imaged every 2-3 days on an automated 96 well plate fluorescence microscope. […] Co-culture with CD8 T cells without any antibody was included as a further control to enable the identification of alloreactive donor T cells.
Eight PDO lines were tested: three CEAhi PDOs (i.e. containing predominantly CEAhi cells; CRC-01, CRC-05, CRC-07), four PDOs with mixed CEA expression (i.e. containing large subpopulations of both CEAhi and CEAlo cells; CRC-02, CRC-03, CRC-04, CRC-08), and one CEAlo PDO (i.e. containing predominantly CEAlo cells; CRC-06).
PDOs were harvested with TrypLE Express and neutralised with DMEM/F12 Ham medium (Sigma Aldrich) with 10% FBS. Cells were filtered through a 70 μm filter, counted and resuspended in phenol-red free RPMI medium (Thermo Fisher) supplemented with 10% FBS (Biosera), 1× Glutamax and 100 units penicillin-streptomycin. On day 0, 5000 tumor cells per well of a 96 well-plate (Corning Special Optics Microplate) were plated. CD8 T cells were added on day 1 at the indicated effector to target (E:T) ratios with 20 nM of cibisatamab or 20 nM of the untargeted negative control antibody DP47-TCB (both provided by Roche). Tumor cells without CD8 T cells and without antibody were also included as controls. All conditions were plated in triplicates and at least 3 different healthy donors were tested on each of the 8 PDOs.
The GFP confluence was quantified every 48h-72h over a 10-day period using the GFP confluence application on the Celigo Imaging Cytometer (Nexcelom Bioscience). GFP confluence analysis was able to track the growth of GFP positive PDO cells over multiple timepoints without erroneously counting the T cells in the co-culture. […] The main advantage of confluence analysis over measuring spheroid diameters is the ability to track even the growth of PDOs showing highly variable shapes. Growth curves were generated with CD8 T cells from three different healthy blood donors. […]

[2] = system: CEA expressing metastatic CRCs; details: cited from earlier work

B1: cibisatamab (antibody, chains of the INN, looked up, V domains shown)
VH: QVQLVQSGAEVKKPGASVKVSCKASGYTFTEFGMNWVRQAPGQGLEWMGWINTKTGEATYVEEFKGRVTFTTDTSTSTAYMELRSLRSDDTAVYYCARWDFAYYVEAMDYWGQGTTVTVSS
VL: DIQMTQSPSSLSASVGDRVTITCKASAAVGTYVAWYQQKPGKAPKLLIYSASYRKRGVPSRFSGSGSGTDFTLTISSLQPEDFATYYCHQYYTYPLFTFGQGTKLEIK
VH2: B1 VH
VL2: QAVVTQEPSLTVSPGGTVTLTCGSSTGAVTTSNYANWVQEKPGQAFRGLIGGTNKRAPGTPARFSGSLLGGKAALTLSGAQPEDEAEYYCALWYSNLWVFGGGTKLTVL
growth inhibition ([1]; CEAhi PDOs (CRC-01, CRC-05, CRC-07), CD8 T cells E:T 2:1, 7-10 days, versus DP47-TCB control): 89-100%
reduction of the cancer cell growth rate compared to controls ([1]; four PDOs with mixed CEA expression (CRC-02, CRC-03, CRC-04, CRC-08), E:T 2:1): only a moderate reduction of the cancer cell growth rate
sensitivity to treatment with CD8 T cells and antibody ([1]; predominantly CEAlo PDO CRC-06, E:T 2:1): showed resistance
sensitivity to treatment with CD8 T cells and antibody ([1]; three CEAhi PDOs, E:T 2:1): highly sensitive
patients with radiological shrinkage (antitumor activity) ([2]; in combination with PD-L1-inhibiting antibodies, 5/10 patients): 50%
patients with radiological shrinkage (antitumor activity) ([2]; monotherapy, metastatic CRC after at least two prior chemotherapy regimens, 4/36 patients): 11%
